In PMC2841503 (Molecular cell, 2010):

Target: yeast ubiquitin (yeast, UniProt P0CG63 1-76)
Assay: NMR titration

Chain of yeast ubiquitin (P0CG63 1-76): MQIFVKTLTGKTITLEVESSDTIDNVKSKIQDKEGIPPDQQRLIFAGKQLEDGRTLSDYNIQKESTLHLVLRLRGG

- binding result: binds
B1: S. cerevisiae Rev1 UBM2 (residues 804-857), GB1-fusion protein (domain or fragment, UniProt P12689 804-857, looked up)
chain: LEVNDLPSTMEEQFMNELPTQIRAEVRHDLRIQKKIQQTKLGNLQEKIKRREES
